The text below walks through data of publication PMC4380549.

The target of the assay is FGFR3 TM-JM-YFP/mCherry (human). Put plainly: FRET or BRET.

In turn, “FGFR3 TM-JM-YFP/mCherry (domain or fragment)” came in with a percent dimer of 100%.
